Reference: patent publication US20200407435A1 (Boehringer Ingelheim, published 2020)
Several values for one entry are separate records, joined by “and”; a condition that tells them apart may be missing. Identical values can stand only once.

Legend:
[1] = biological target: T1, rhAngiopoietin-2 (R&D systems cat 623-AN/CF) (human, UniProt O15123 19-496, limits assumed); assay: cell-based or functional assay
T1 sequence (looked up): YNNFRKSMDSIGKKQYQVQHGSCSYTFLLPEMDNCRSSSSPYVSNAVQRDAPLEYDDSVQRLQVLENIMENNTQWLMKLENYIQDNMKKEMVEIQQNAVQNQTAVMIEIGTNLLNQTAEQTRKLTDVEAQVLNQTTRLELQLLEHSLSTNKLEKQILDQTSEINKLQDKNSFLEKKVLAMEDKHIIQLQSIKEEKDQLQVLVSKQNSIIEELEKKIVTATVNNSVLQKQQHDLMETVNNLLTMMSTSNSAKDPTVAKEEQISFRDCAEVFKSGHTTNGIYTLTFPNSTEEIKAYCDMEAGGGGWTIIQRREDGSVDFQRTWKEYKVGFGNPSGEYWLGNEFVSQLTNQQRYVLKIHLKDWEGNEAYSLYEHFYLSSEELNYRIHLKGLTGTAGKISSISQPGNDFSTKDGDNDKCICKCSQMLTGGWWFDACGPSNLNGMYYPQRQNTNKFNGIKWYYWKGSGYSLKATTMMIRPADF

rabbit ANGPT2 = biological target: T2, rabbit ANGPT2 (rabbit, UniProt G1T9B3 275-496); assay: SPR (ProteOn XPR36), antibody captured on Protein A/G, rabbit ANGPT2 as analyte
T2 construct: domain: FLD domain; also called rabbit ANGPT2 FLD domain
T2 sequence: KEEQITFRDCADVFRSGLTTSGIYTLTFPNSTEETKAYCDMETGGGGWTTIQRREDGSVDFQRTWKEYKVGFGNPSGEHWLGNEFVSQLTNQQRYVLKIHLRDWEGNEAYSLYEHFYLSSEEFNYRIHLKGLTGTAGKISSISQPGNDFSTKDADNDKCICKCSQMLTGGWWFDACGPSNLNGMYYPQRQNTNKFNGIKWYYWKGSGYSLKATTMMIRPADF
Description: The binding affinity to the various ANGPT2 analytes is determined by surface plasmon resonance (SPR) using a ProteOn XPR36 (Bio-Rad). Unless otherwise stated, all reagents are obtained from Bio-Rad. The running buffer for all assays and dilutions (except where stated) is phosphate buffered saline (PBS)/ethylenediamine tetraacetic acid (EDTA) with 0.01% Tween20 (PBS-T-EDTA). PBS-T-EDTA is prepared by adding 100 μl of 100% Tween20 to 2 L of PBS-T-EDTA with an initial concentration of 0.005% Tween20 to make a final Tween20 concentration of 0.01%. The general linearized model (GLM) sensorchip is normalized, pre-conditioned, and activated with an equal mixture of 1-ethyl-3-[3-dimethylaminopropyl]carbodiimide (EDC)/N-hydroxysulfosuccinimide (s-NHS) in the horizontal direction for 300 sec at a flow rate of 30 μl/min. Immobilization is then is done with Recombinant Protein A/G (Thermo Scientific) (60 μg/ml in 10 mM acetate pH 4.5) in the horizontal direction for 300 sec at a flowrate of 30 μl/min resulting in about 4370-4875 response units (RUs) of Protein A/G on the surface. The sensorchip is then deactivated with 1M ethanolamine HCl in the horizontal direction for 300 sec at a flowrate of 30 μl/min. The sensorchip is stabilized with 18 sec of 0.85% phosphoric acid at a flowrate of 100 μl/min 3 times horizontally and 3 times vertically. […]

cynomolgus (cyno) ANGPT2 = biological target: T3, cynomolgus (cyno) ANGPT2 (cynomolgus, UniProt A0A2K5VNX6 275-496); assay: SPR (ProteOn XPR36), antibody captured on Protein A/G, ANGPT2 as analyte, 1:1 Langmuir fit
T3 construct: domain: FLD domain; also called cyno ANGPT2 FLD domain
T3 sequence: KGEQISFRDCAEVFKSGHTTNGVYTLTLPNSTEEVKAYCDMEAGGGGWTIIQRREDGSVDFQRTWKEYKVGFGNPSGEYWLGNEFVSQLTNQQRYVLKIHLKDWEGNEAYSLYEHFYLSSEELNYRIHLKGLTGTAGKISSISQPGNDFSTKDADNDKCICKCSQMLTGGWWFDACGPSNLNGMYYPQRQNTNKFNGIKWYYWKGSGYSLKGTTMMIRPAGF
Description: (§1) The binding affinity to the various ANGPT2 analytes is determined by surface plasmon resonance (SPR) using a ProteOn XPR36 (Bio-Rad). Unless otherwise stated, all reagents are obtained from Bio-Rad. The running buffer for all assays and dilutions (except where stated) is phosphate buffered saline (PBS)/ethylenediamine tetraacetic acid (EDTA) with 0.01% Tween20 (PBS-T-EDTA). PBS-T-EDTA is prepared by adding 100 μl of 100% Tween20 to 2 L of PBS-T-EDTA with an initial concentration of 0.005% Tween20 to make a final Tween20 concentration of 0.01%. The general linearized model (GLM) sensorchip is normalized, pre-conditioned, and activated with an equal mixture of 1-ethyl-3-[3-dimethylaminopropyl]carbodiimide (EDC)/N-hydroxysulfosuccinimide (s-NHS) in the horizontal direction for 300 sec at a flow rate of 30 μl/min. Immobilization is then is done with Recombinant Protein A/G (Thermo Scientific) (60 μg/ml in 10 mM acetate pH 4.5) in the horizontal direction for 300 sec at a flowrate of 30 μl/min resulting in about 4370-4875 response units (RUs) of Protein A/G on the surface. The sensorchip is then deactivated with 1M ethanolamine HCl in the horizontal direction for 300 sec at a flowrate of 30 μl/min. The sensorchip is stabilized with 18 sec of 0.85% phosphoric acid at a flowrate of 100 μl/min 3 times horizontally and 3 times vertically.
(§2) Each ANGPT2 antibody is captured on the Protein A/G surface vertically for 300 sec at a flowrate of 30 μl/min resulting in a capture level of about 2500 RU. The baseline is stabilized by injecting PBS-T-EDTA for 60 sec at a flowrate of 100 μl/min horizontally with dissociation of 120 sec. The analyte (e.g., HuANGPT2) is injected horizontally over the captured antibody for 300 sec at a flowrate of 30 μl/min and a dissociation for 1800 sec. […] The surface is regenerated by injecting 0.85% phosphoric acid for 18 sec at a flowrate of 100 μl/min one time horizontally and one time vertically. PBS-T-EDTA is injected for 60 sec at a flowrate of 100 μl/min one time vertically and one time horizontally.
(§3) The interspot (interactions with sensor surface) and blank (PBS-T-EDTA with 0.01% Tween20 or 0 nM of analyte (here HuANGPT2)) are subtracted from the raw data.

[2] = biological target: T4, human ANGPT2 (SPR analyte) (human, UniProt O15123 275-496, limits assumed); assay: as above
T4 construct: domain: FLD domain; also called HuANGPT2; human ANGPT2 FLD domain
T4 sequence (looked up): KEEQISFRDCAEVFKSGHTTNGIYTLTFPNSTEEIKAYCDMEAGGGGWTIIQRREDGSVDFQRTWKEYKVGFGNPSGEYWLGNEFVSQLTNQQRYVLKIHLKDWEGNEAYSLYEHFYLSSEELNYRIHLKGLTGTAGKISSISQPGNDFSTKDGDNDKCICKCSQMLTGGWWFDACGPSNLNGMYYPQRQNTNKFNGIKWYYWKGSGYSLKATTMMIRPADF
Description: as §1, §2, §3

[3] = biological target: T5, Human ANGPT2 Dimer (CC-FLD) (human, UniProt O15123 74-496, limits assumed); assay: flow cytometry blocking assay: antibody titrated against His-tagged human ANGPT2 dimer (CC-FLD) binding to HEK293 human Tie2 cells
T5 construct: domain: CC-FLD; also called ANGPT2 protein with His-tag; not shown: His-tag
T5 sequence (looked up): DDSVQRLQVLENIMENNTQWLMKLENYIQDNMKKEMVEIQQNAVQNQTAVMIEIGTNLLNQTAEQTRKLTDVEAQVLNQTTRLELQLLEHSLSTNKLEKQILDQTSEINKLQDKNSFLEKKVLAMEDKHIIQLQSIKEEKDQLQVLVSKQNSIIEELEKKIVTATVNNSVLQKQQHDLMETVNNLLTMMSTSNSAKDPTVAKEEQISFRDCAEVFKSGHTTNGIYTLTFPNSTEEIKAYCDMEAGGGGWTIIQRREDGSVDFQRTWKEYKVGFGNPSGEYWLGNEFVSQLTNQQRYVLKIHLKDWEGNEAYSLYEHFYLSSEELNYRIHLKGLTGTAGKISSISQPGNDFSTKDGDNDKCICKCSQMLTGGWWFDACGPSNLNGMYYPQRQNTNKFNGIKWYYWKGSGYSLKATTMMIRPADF
Description: Human ANGPT2 Dimer (CC-FLD) is pre-incubated with the testing antibodies. The ANGPT2/Antibody mixture is then incubated with HEK293 human Tie2 cells at 4° C. After washing, the cells are stained with anti-His-AF647 (from GenScript) for detection of the His-tag on the ANGPT2 protein. The binding of the secondarily labelled ANGPT2 to human Tie2 cells is detected by FLOW cytometry. The average of the duplicate values for each concentration point is used to derive the curve fit graphs. Antibodies that prevent ANGPT2 from binding to the Tie2 cells are considered blocking antibodies. The results are shown in FIGS. 3A-3G and the EC50 values are shown in Table 5 based on the average of duplicate values.

- Tie2 phosphorylation functional assay, EC50 [1]: 4.2 nM and 4 nM
- Kd (rabbit ANGPT2): 0.133 nM
- Kd (cynomolgus (cyno) ANGPT2): 0.146 nM
- koff (cynomolgus (cyno) ANGPT2): 2.08e-05 s⁻¹
- kon (cynomolgus (cyno) ANGPT2): 142000 M⁻¹ s⁻¹
- Kd [2]: 0.144 nM
- koff [2]: 1.89e-05 s⁻¹
- kon [2]: 132000 M⁻¹ s⁻¹
- EC50 [3]: 13 nM
B1: ANGPT2-opt-13 (humanized) (antibody, human IgG1, kappa, V domains shown)
VH: QVQLVQSGAEVKKPGSSVKVSCKASGYIFIDYFINWVRQAPGQGLEWMGKIGPGSGSSSSNEKFKGRVTITADKSTSTAYMELSSLRSEDTAVYYCAREAFDYDGDYYGMAYWGQGTLVTVSS
VL: EIVMTQSPATLSVSPGERATLSCKSSQSLLSSGNQKSFLAWYQQKPGQAPRLLIYGASTRETGIPARFSGSGSGTEFTLTISSLQSEDFAVYYCQNDHSYPITFGQGTKLEIKR
notes: also called Ang2-opt-13; ANGPT-opt-13
